What was measured:
[1] = target: CCR5 (Homo sapiens (Human)) (UniProt P51681)
[2] = target: CCR5 (Homo sapiens (Human)) (UniProt P51681); remark: listed apart in the source
[3] = target: CCR5 (Homo sapiens (Human)) (UniProt P51681); remark: listed apart in the source

| Substance | Mean Relative Potency (IC50 in the envelope-mediated cell fusion assay, relative to AOP-RANTES = 100) (relative to AOP-RANTES = 100) [1] | inhibition of envelope-mediated cell fusion [2] [% inhibition] | Average Infectivity IC50 (cell-free viral infection assay) [3] [pM] | Cell-Fusion Result For Comparison (IC50) [3] [pM] |
| --- | --- | --- | --- | --- |
| NNY-P2Thz-Y3Chg-RANTES (4-68) (from UniProt P13501) (ligand) | 2 | > 50 |  |  |
| NNY-P2Thz-Y3tButA-RANTES (4-68) (from UniProt P13501) (ligand) | 4 | > 50 |  |  |
| NNY-P-Y3Chg-RANTES (4-68) (from UniProt P13501) (ligand) | 7 | > 50 | 12 | 26 |
| NNY-P-Y3tbuA-RANTES (4-68) (from UniProt P13501) (ligand) | 7 | > 50 | 14 | 38 |

Reference: patent US20040077835A1
